In this series the test system is [H][C@@]12COP(=O)(O)O[C@@]1([H])[C@@H](O)[C@H](n1cnc3c(=O)[nH]c(N)nc31)O2. Put plainly: TP_TRANSPORTER: uptake in membrane vesicles from MRP5-expressing V79 cells. Format: functional, cell membranes, Membrane vesicle.

Take “ATP-binding cassette sub-family C member 5 (Homo sapiens)”: the Km came to 2.1 µM.

The Km is the substrate concentration at which the rate is half of its maximum.

For the origin of these results see ChEMBL document CHEMBL2074325, “The multidrug resistance protein 5 functions as an ATP-dependent export pump for cyclic nucleotides” (J Biol Chem, 2000).
